The target in test [1] is mouse RAGE VC1 domain triple mutant R216A-R217H-R218A (mouse). The test can be described thus: ELISA; methods: 200 ng mRAGE-WT or mRAGE-AHA coated on the plate, 1% BSA block, biotinylated HMGB1 50-1000 ng/ml for 2 hr, streptavidin-HRP; the legend says HMGB1 was immobilised; apparent Kd.
In test [2] the target is T1, mouse RAGE VC1 domain triple mutant R216A-R217H-R218A.
T1 chain: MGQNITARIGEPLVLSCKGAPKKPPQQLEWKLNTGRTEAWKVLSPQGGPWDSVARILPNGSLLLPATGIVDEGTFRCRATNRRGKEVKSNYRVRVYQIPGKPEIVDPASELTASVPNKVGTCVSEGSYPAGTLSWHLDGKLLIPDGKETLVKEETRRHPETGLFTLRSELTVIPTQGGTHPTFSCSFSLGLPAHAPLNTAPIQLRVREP
Put plainly: gel filtration (Superdex 200). As to conditions: chain shown with the change; incubated with HS dodecasaccharide (H12); Superdex 200 (10/300 mm) gel filtration column; parent: est. 13; read off a plot. (Size exclusion chromatography separates by hydrodynamic size, large species first.)

The target in test [3] is T2, high mobility group Box 1 (HMGB1) (UniProt P63158 1-215, biotin (in the HMGB1 binding ELISA of p-0047; immobilised without a stated label in the ELISA of p-0044)).
T2 construct: HMGB1; also called biotinylated HMGB1
T2 sequence (looked up): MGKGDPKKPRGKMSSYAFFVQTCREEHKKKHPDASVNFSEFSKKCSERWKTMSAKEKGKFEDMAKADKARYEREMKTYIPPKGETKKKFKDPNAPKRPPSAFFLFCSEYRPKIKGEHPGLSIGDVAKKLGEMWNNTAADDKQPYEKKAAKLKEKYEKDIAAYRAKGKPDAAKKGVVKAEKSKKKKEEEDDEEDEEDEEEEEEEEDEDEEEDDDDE
Put plainly: ELISA; methods: 200 ng mRAGE-WT or mRAGE-AHA coated on the plate, 1% BSA block, biotinylated HMGB1 50-1000 ng/ml for 2 hr, streptavidin-HRP; the legend says HMGB1 was immobilised; apparent Kd. Conditions: both partners purified.

Turning to “high mobility group Box 1 (HMGB1) (from UniProt P63158 1-215) (ligand)”, the Kd in test [1] came out at 9.9 nM.

B1: wild-type mouse RAGE VC1 domain, Q62151 R216A; R217H; R218A (protein)
chain: MGQNITARIGEPLVLSCKGAPKKPPQQLEWKLNTGRTEAWKVLSPQGGPWDSVARILPNGSLLLPATGIVDEGTFRCRATNRRGKEVKSNYRVRVYQIPGKPEIVDPASELTASVPNKVGTCVSEGSYPAGTLSWHLDGKLLIPDGKETLVKEETRRHPETGLFTLRSELTVIPTQGGTHPTFSCSFSLGLPAHAPLNTAPIQLRVREP
B1: in test [2], the other: gel filtration elution volume of main peak in presence of H12 was 14 mL.

B2: wild-type mouse RAGE VC1 domain (domain or fragment, UniProt Q62151 23-231, looked up)
chain: GQNITARIGEPLVLSCKGAPKKPPQQLEWKLNTGRTEAWKVLSPQGGPWDSVARILPNGSLLLPATGIVDEGTFRCRATNRRGKEVKSNYRVRVYQIPGKPEIVDPASELTASVPNKVGTCVSEGSYPAGTLSWHLDGKLLIPDGKETLVKEETRRHPETGLFTLRSELTVIPTQGGTHPTFSCSFSLGLPRRRPLNTAPIQLRVREPG
notes: RAGE (receptor for advanced glycation end-products, Ager), mouse, V and C1 immunoglobulin domains; also called WT-mVC1; mVC1-WT; source: E. coli, purified (HiTrap SP cation exchange, SEC on Superdex 200)
As for B2, in test [3], the Kd is 11.7 nM.
